In patent US11707504B1 (KING FAISAL UNIVERSITY, dated 2023):

Biological target: HCoV-229E spike (S) protein, S2 subunit fusion core (HR1/HR2) (human coronavirus 229E, UniProt P15423)
Test: cell-based or functional assay

With SLTQINTTLLDLTYEMLSLQQVVKALNESYIDLKEL [peptide #1 (Peptide 1 (WT))] the “IC50 (plaque reduction test, Vero E6 cells)” value was 8.5 µg/mL.
